Results reported in paper PMC5414002 (mBio, 2017).

Molecular target: the molecule itself
Test: cryo-EM structure; EcFtsZ filaments, 0.5 mg/ml in 50 mM HEPES-KOH, 100 mM potassium acetate, 5 mM magnesium acetate, pH 7.7, 20°C, 0.1 mM GMPCPP; helical reconstruction in RELION

B1: Full-length, untagged wild-type Escherichia coli FtsZ (natural protein, UniProt P0A9A6 1-383, looked up)
chain: MFEPMELTNDAVIKVIGVGGGGGNAVEHMVRERIEGVEFFAVNTDAQALRKTAVGQTIQIGSGITKGLGAGANPEVGRNAADEDRDALRAALEGADMVFIAAGMGGGTGTGAAPVVAEVAKDLGILTVAVVTKPFNFEGKKRMAFAEQGITELSKHVDSLITIPNDKLLKVLGRGISLLDAFGAANDVLKGAVQGIAELITRPGLMNVDFADVRTVMSEMGYAMMGSGVASGEDRAEEAAEMAISSPLLEDIDLSGARGVLVNITAGFDLRLDEFETVGNTIRAFASDNATVVIGTSLDPDMNDELRVTVVATGIGMDKRPEITLVTNKQVQQPVMDRYQQHGMAPLTQEQKPVAKVVNDNAPQTAKEPDYLDIPAFLRKQAD
notes: also called EcFtsZ; source: E. coli C41(DE3), purified (GTP- and calcium-induced precipitation, anion exchange)
Question: Does B1 bind?
Answer: Result: binds
